Laboratory results reported in PMC10858199 (2024).

Target: Amyloid-beta aggregates (Homo sapiens, UniProt P05067)
Assay: SPR

Kd: ~1000 nM
B1: CR4 I-domain (protein)
chain: RNFATMMNFVRAVISQFQRPSTQFSLMQFSNKFQTHFTFEEFRRSSNPLSLLASVHQLQGFTYTATAIQNVVHRLFHASYGARRDAAKILIVITDGKKEGDSLDYKDVIPMADAAGIIRYAIGVGLAFQNRNSWKELNDIASKPSQEHIFKVEDFDALKDIQNQLKEKIFAIEGT
